Values quoted from earlier work, collected in PMC8199105.

Biological target: Albumin (UniProt P02768)
Assay: surface plasmon resonance

- Kd: 630 nM
Substance: Cubilin (from UniProt O70244)
